For data set [1], the target named is GmPOPB-S577A (inactive mutant) (Galerina marginata) (UniProt H2E7Q8). Kind of data set: ITC; 200 uM peptide in the syringe titrated into 20 uM protein in the cell; 20 °C; 50 mM Tris (pH 8.0), 50 mM NaCl, 10 mM DTT; single-site model, n fixed at 1.0. Background: ITC needs no label: the signal is the heat of the interaction.
Data set [2] deals with CC[C@H](C)[C@H](N)C(=O)N[C@@H](Cc1c[nH]c2ccccc12)C(=O)NCC(=O)N[C@H](C(=O)NCC(=O)N[C@@H](CS)C(=O)N[C@@H](CC(N)=O)C(=O)N1CCC[C@H]1C(=O)N[C@@H](Cc1c[nH]c2ccccc12)C(=O)N[C@H](C(=O)N[C@@H](C)C(=O)N[C@@H](CCC(=O)O)C(=O)N[C@@H](Cc1c[nH]cn1)C(=O)N[C@H](C(=O)N[C@@H](CC(=O)O)C(=O)N[C@@H](CCC(N)=O)C(=O)N[C@H](C(=O)N[C@@H](CC(C)C)C(=O)N[C@@H](C)C(=O)N[C@@H](CO)C(=O)NCC(=O)N[C@@H](CC(N)=O)C(=O)N[C@@H](CC(=O)O)C(=O)N[C@H](C(=O)N[C@@H](CS)C(=O)O)[C@@H](C)CC)[C@@H](C)O)C(C)C)[C@@H](C)O)[C@@H](C)CC. The data set can be described thus: purified protein, by the assay type. The conditions noted are these: 50 mM NaCl, 10 mM DTT, duplicate.

For a further data set, the target named is His680 (UniProt position 680, DTKAGHGAGKP). The data set can be described thus: other (titration of the catalytic histidine; the title of ref 41 indicates inhibitor binding). The conditions noted are these: cited from earlier work.
Data set [3] addresses T1, GmPOPB (Galerina marginata, UniProt H2E7Q8).
T1 construct: His tag (TEV-cleavable) (cleaved yes); made in house; host or cells: E. coli BL21(DE3)
Kind of data set: Global fitting by numerical integration of quenched-flow and stopped-flow data. Type of data set: biochemical. The conditions noted are these: read-out: k–5 (tail association), Kintek best-fit.

For data set [4], the target named is T1, GmPOPB. Kind of data set: biochemical. Particulars: Figure S10, fit to Equation S4; activity normalized to no inhibitor (100%) and 50 µM recognition sequence (0%).
The target in data set [5] is GmPOPB–tail complex (GmPOPB-S577A pre-mixed with the peptide tail) (Galerina marginata) (UniProt H2E7Q8). Kind of data set: stopped-flow tryptophan fluorescence; analytical fitting; excitation 285 nm, emission above 320 nm; 20 °C; 50 mM Tris-HCl (pH 8.0), 50 mM NaCl, 10 mM DTT; constants calculated from rate constants; Kov is an apparent dissociation constant for a two-step binding process.

The target is the same in data set [6]. The data set can be described thus: stopped-flow tryptophan fluorescence; global fitting by numerical integration (KinTek Global Kinetic Explorer) of stopped-flow binding and quenched-flow turnover data together; 20 °C; k1/k-1 and k5/k-5 linked by the ITC Kd values; k4 and k-4 fixed at best-fit values.
The subject of the next data set is porcine POP. The conditions noted are these: cited from earlier work.
The target in data set [7] is T2, Prolyl oligopeptidase B from Galerina marginata (GmPOPB) (Galerina marginata, UniProt H2E7Q8 1-730).
T2 sequence (looked up): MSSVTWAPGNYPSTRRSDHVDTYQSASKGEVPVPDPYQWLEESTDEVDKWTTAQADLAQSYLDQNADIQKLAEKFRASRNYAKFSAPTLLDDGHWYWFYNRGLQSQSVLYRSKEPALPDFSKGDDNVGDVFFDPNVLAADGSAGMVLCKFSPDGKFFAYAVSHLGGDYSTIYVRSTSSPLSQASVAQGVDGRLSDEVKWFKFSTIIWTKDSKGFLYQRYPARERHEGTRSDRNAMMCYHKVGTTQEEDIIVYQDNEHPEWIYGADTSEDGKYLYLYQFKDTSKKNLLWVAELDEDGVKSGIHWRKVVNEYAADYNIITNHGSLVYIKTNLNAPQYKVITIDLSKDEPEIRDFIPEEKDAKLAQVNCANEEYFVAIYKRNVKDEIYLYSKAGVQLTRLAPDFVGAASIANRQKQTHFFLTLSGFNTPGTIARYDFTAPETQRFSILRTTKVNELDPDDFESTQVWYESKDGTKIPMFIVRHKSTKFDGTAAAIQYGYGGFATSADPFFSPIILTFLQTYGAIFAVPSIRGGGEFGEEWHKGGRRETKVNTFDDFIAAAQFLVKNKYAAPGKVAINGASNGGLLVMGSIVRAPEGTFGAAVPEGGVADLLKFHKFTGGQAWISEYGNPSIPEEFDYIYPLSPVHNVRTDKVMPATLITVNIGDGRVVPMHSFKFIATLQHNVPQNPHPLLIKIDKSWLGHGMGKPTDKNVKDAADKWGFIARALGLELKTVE
Kind of data set: stopped-flow tryptophan fluorescence; 2 μM GmPOPB, peptide tail 0.5-20 μM, 20 °C, excitation 285 nm, emission above 320 nm; analytical fitting (replots of kobs and of amplitudes against tail concentration). The conditions noted are these: both partners purified.

The target in data set [8] is T2, Prolyl oligopeptidase B from Galerina …. Described as above. The conditions noted are these: both partners purified. This is another data set of the same source.
Data set [9] shares this target. The data set can be described thus: stopped-flow tryptophan fluorescence; 2 μM GmPOPB, peptide tail 0.5-20 μM, 20 °C; this experiment fitted individually by numerical integration (KinTek Global Explorer, Fitspace boundaries), no constraints. The conditions noted are these: both partners purified.
The target of data set [10] is T3, Prolyl oligopeptidase B from Galerina marginata (GmPOPB) (Galerina marginata, UniProt H2E7Q8 1-730).
T3 sequence (looked up): T2 sequence (looked up)
Kind of data set: ITC; 200 uM peptide in the syringe titrated into 20 uM protein in the cell; 20 °C; 50 mM Tris (pH 8.0), 50 mM NaCl, 10 mM DTT; single-site model, n fixed at 1.0. The conditions noted are these: both partners purified.

The target in data set [11] is T3, Prolyl oligopeptidase B from Galerina …. The data set can be described thus: stopped-flow tryptophan fluorescence; analytical fitting; excitation 285 nm, emission above 320 nm; 20 °C; 50 mM Tris-HCl (pH 8.0), 50 mM NaCl, 10 mM DTT; constants calculated from rate constants; Kov is an apparent dissociation constant for a two-step binding process. The conditions noted are these: both partners purified.

The target is the same in data set [12]. Kind of data set: stopped-flow tryptophan fluorescence; global fitting by numerical integration (KinTek Global Kinetic Explorer) of stopped-flow binding and quenched-flow turnover data together; 20 °C; k1/k-1 and k5/k-5 linked by the ITC Kd values; k4 and k-4 fixed at best-fit values. Particulars: both partners purified.
The target is the same in data set [13]. The data set can be described thus: ITC; 200 uM peptide in the syringe titrated into 20 uM protein in the cell; 20 °C; 50 mM Tris (pH 8.0), 50 mM NaCl, 10 mM DTT; single-site model, n fixed at 1.0. The conditions noted are these: both partners purified. This is another data set of the same source.
[14] abbreviates: other: 20 °C, 50 mM Tris-HCl (pH 8.0), standard error, 20.0 °C.

Values joined by “and” are separate entries in the source; they are usually repeats but may differ in a detail not shown here. Equal values may be shown once. Where no end group is shown, it is not given here.

What is called stoichiometry N is the number of molecules, sites or subunits per partner or assembly. On to “25mer peptide substrate of GmPOPB (core plus peptide tail of the amanitin precursor)”, for which the stoichiometry N in data set [1] stood at 1.

For orientation: Km means the concentration of substrate that gives half-maximal velocity. On to GmPOPB (Galerina marginata CBS 339.88), for which, in data set [2] (setting [14]), the Km was 55 µM and 55.4 ± 18.6 µM; the kcat was found to be 0.23 ± 0.03 s^–1. Also, the Km in [2] (other: H2O, 37 °C, 50 mM Tris (pH 8.0), LC–MS, 37.0 °C) was 51 µM.

A word on the pKa: it is the negative logarithm of the acid dissociation constant. Take “Prolyl oligopeptidase (prolyl endopeptidase, POP) (Sus scrofa)”: the pKa with His680 was 6.25.

What is called IC50 is the concentration needed to halve the response being measured. A lower IC50 goes with greater potency. As to WTAEHVDQTLASGNDIC [peptide tail], on GmPOPB [3], the kon stood at 3.22e+06 ± 10000 M⁻¹ s⁻¹. In addition, the half-inhibitory concentration (IC50) on GmPOPB [4] amounted to 320 ± 100 nM.

“eight-amino acid cyclic peptide product of the GmPOPB macrocyclization reaction”: in [5], the Kd was 99.2 nM. For the same molecule, in [6], the k3 (slower step of the two-step binding, direction of release of the cyclic peptide) came out at 12.3 s^–1; the k4 (fast bimolecular step of the two-step binding, dissociation of the cyclic peptide) came to 100 s^–1; the k-3 (slower step of the two-step binding, direction of binding of the cyclic peptide) was determined as 0.78 μM^–1 s^–1; the k-4 (fast bimolecular step of the two-step binding, association of the cyclic peptide) was 60 μM^–1 s^–1.

With “porcine POP: Sus scrofa (porcine) prolyl oligopeptidase”, in the data set with porcine POP (depending on the substrate used), the “activation energy, porcine POP” value was 14 to 20 kcal mol^–1. In the data set with porcine POP (dipeptide substrate), the “pKa (first), porcine POP” value is listed as 5; the “pKa (second), porcine POP” value was 7; the “pKa (third), porcine POP” value was 9.5. The “pKa of catalytic His680, porcine POP” value in the data set on porcine POP (titration of the catalytic histidine) is listed as 6.25.

B1: Peptide tail (WTAEHVDQTLASGNDIC) (peptide)
peptide: WTAEHVDQTLASGNDIC
In general, koff refers to a measure of how fast the partners let go of each other. A high value points to fast dissociation. Consider B1, for which the Kd in data set [7] was found to be 322 ± 37.5 nM. In data set [8], this molecule had an off-rate constant (koff) of 3.54 s⁻¹ and a kon of 4.84e+06 M⁻¹ s⁻¹. Further, in data set [9], the dissociation rate constant (koff) was 0.58 s⁻¹ and the kon turned out to be 4.69e+06 M⁻¹ s⁻¹.

B2: peptide tail (17-amino acid C-terminal recognition sequence) (peptide)
peptide: WTAEHVDQTLASGNDIC
Take B2: the values for the Kd in data set [10] and in [11] were 442 nM and 731 nM, respectively. The koff in [12] was 1.44 s⁻¹. The “stoichiometry N” value in data set [13] was roughly 1.

Source of the values: PMC5397884 (Biochemistry, 2017).
